This passage reports fold worse affinity than GAIP, Ki and fold higher affinity than the GIRK3 peptide results from publication doi:10.1101/2020.05.28.121053.

Broadly, the Ki is a dissociation constant, usually derived from enzyme kinetics or from competition with a known ligand. High values mean a looser hold on the target, low ones a stronger hold on the target.

Read-outs that look alike come from different tables or passages of the source. Ends that are not written are not given here. A value given as a limit tells only on which side of the number the result lay.

Holding throughout (assay): fluorescence polarisation
In general terms: Fluorescence polarisation rises when a labelled molecule tumbles more slowly, as on binding a larger partner.

Test [1] has as its target mbGIPC PDZ domain (Monosiga brevicollis GIPC homologue, original construct) (Monosiga brevicollis).
For test [2] the target is unchanged. The source holds these as a separate data set.
The target in test [3] is mbSHANK1 PDZ domain (Monosiga brevicollis SHANK1 homologue) (Monosiga brevicollis).

Molecule “β-1 adrenergic receptor (B1AR) C-terminal peptide” gave a fold worse affinity than GAIP in test [1] of 20 fold. Consider GAIP C-terminal peptide, for which the Ki in test [1] came out at 0.14 µM. “tyrosinase-related protein 1 (TYRP1) C-terminal peptide” had a fold worse affinity than GAIP in test [1] of 10 fold. In test [2], VEPKKSFDEI [decameric peptide matching the final 10 residues of the mbGIPC_(SFDEI) construct] yielded a Ki greater than 1000 µM. In test [3], NDPAWDETNL (also: fluorescent label, kind and position not given here) [fluorescent β-PIX peptide] gave a fold higher affinity than the GIRK3 peptide of 62 fold.
